The target of assay [1] is T1, Human Siglec-9 (human, UniProt Q9Y336 18-463).
T1 construct: On transfected CHO cells; also on YTS and KHYG-1 transfectants, primary NK cells and moDC; also called huSiglec-9; CD329
The assay can be described thus: flow cytometry on fresh purified human NK cells, mean of 4 donors. On the procedure: Binding of antibodies on fresh purified human NK cells was tested by titration experiment by flow cytometry. Cells were incubated 1h in Staining Buffer (SB) with primary antibodies at 10 ug/ml and a series of dilution of 1:10. They were washed three times with SB, then incubated 30 min with a Goat F(ab′)² Anti-Human IgG (Fc) PE (Jackson ImmunoResearch). Stainings were acquired on a BD FACS Canto II and analyzed using the FlowJo software. EC₅₀ values are shown in the table below in μg/ml (calculated using a 4-parameter logistic fit).
(In general: A flow cytometer gives signals particle by particle.)

The target of assay [2] is T2, Siglec-7 Fc protein (human).
T2 construct: Produced in CHO cells; also called human Siglec-7 Fc
The assay can be described thus: ELISA, blocking: Siglec-7 Fc captured on protein A, mAb dilution series, then biotinylated polymer Sia2 (6'-Sialyllactose-PAA-biotin), streptavidin-peroxidase (top panel). On the procedure: (§1) Blocking of the interaction between Siglec-7 and -9 and sialylated ligands by anti Siglec-7/9 antibodies was tested on ELISA assays. Siglec proteins were Siglec-7 human Fc and Siglec-9 Human Fc recombinant proteins, and ligands were biotinylated polymers with sialylated trisaccharides (Neu5Aca2-3Galb1-4GcNAcb-PAA-biotin Glycotech #01-077 referred to as “Sia1” and 6′-Sialyllactose-PAA-biotin Glycotech #01-039 (referred to as “Sia2”). Briefly, Protein A was coated on ELISA plates over night at 4° C. After 3 washes and saturation, Siglec-7 Fc and Siglec-9 Fc were added at 0.8 μg/well at RT for 1H30. After 3 washes, mAbs were added at 20 ug/ml and a series of dilution of 1:5. After 3 washes, biotinylated sialylated polymers were added for 3 hours at room temperature. After 3 washes, Streptavidin-Peroxidase (Beckman) was added at 1:1000. […] The absorbance was read at 450 nm.
In general terms: In an ELISA, binding on a coated surface is turned into a signal by an enzyme label.

Assay [3] addresses T3, Siglec-9 Fc protein (human).
T3 construct: Produced in CHO cells; also called human Siglec-9 Fc
The assay is described as follows: ELISA, blocking: Siglec-9 Fc captured on protein A, mAb dilution series, then biotinylated polymer Sia1, streptavidin-peroxidase (top panel); weak partial inhibition. On the procedure:
as §1

Assay [4] has as its target T2, Siglec-7 Fc protein. The assay is described as follows: ELISA, blocking: Siglec-7 Fc captured on protein A, mAb dilution series, then biotinylated polymer Sia2, streptavidin-peroxidase (bottom panel); partial inhibition. On the procedure:
as §1

Assay [5] addresses T3, Siglec-9 Fc protein. The assay is described as follows: ELISA, blocking: Siglec-9 Fc captured on protein A, mAb dilution series, then biotinylated polymer Sia2, streptavidin-peroxidase (bottom panel). On the procedure:
as §1

Assay [6] has as its target T1, Human Siglec-9. The assay is described as follows: flow cytometry, CHO Siglec-9 cells, mean n = 2. On the procedure:
Binding of humanized antibodies was tested on CHO cells transfected with human Siglec-9, in a titration experiment by flow cytometry. Cells were incubated 90 minutes at 37° C. in Staining Buffer (SB) with primary antibodies at 10 ug/ml and a series of dilution of 1:10. They were washed three times with SB, then incubated 30 minutes with a goat F(ab′)² Anti-human IgG (Fc) PE. EC₅₀ values (μg/ml) for Siglec-9 expressing cells are shown below.

Assay [7] has as its target T4, Human Siglec-9 mutant M16 (human, UniProt Q9Y336 18-463).
T4 construct: Expressed on HEK293T cells; also called Mutant 16
The assay can be described thus: flow cytometry, HEK293T transfectants; '-' indicates full loss of binding.

Assay [8] has as its target T5, Human Siglec-9 mutant M6 (human, UniProt Q9Y336 18-463).
T5 construct: Expressed on HEK293T cells; also called Mutant 6
Described as above.

Assay [9] addresses T6, Human Siglec-9 mutant M8 (human, UniProt Q9Y336 18-463).
T6 construct: Expressed on HEK293T cells; also called Mutant 8
Described as above.

T1 sequence (Q9Y336 18-463): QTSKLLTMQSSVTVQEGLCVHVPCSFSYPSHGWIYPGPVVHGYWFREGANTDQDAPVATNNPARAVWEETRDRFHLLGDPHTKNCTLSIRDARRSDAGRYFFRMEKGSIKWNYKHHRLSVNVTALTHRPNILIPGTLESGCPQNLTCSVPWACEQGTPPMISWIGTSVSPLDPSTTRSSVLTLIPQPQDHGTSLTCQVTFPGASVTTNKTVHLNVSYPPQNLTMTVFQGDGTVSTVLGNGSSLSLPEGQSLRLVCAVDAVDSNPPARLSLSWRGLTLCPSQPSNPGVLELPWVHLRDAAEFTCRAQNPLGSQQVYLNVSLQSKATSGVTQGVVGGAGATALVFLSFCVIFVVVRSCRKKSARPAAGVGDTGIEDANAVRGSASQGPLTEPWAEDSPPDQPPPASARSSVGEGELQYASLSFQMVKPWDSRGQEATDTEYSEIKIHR
T2 sequence (chain, as listed by the source limits assumed): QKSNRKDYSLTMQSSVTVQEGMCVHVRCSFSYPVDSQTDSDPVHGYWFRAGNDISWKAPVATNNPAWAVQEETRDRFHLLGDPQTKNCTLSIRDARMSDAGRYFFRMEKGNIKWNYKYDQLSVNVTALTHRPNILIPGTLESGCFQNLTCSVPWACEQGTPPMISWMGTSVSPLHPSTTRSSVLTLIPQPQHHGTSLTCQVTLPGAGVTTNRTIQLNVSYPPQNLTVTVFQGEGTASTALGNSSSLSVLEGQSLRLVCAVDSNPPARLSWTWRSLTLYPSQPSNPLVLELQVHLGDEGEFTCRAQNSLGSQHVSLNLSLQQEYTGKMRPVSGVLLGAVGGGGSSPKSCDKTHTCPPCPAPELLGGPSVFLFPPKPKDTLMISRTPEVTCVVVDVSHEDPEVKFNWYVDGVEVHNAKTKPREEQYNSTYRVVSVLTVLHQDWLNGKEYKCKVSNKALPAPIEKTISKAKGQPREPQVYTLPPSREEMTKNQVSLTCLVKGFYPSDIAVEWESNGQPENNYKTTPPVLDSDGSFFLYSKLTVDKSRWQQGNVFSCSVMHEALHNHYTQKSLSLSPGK
T3 sequence (chain, as listed by the source limits assumed): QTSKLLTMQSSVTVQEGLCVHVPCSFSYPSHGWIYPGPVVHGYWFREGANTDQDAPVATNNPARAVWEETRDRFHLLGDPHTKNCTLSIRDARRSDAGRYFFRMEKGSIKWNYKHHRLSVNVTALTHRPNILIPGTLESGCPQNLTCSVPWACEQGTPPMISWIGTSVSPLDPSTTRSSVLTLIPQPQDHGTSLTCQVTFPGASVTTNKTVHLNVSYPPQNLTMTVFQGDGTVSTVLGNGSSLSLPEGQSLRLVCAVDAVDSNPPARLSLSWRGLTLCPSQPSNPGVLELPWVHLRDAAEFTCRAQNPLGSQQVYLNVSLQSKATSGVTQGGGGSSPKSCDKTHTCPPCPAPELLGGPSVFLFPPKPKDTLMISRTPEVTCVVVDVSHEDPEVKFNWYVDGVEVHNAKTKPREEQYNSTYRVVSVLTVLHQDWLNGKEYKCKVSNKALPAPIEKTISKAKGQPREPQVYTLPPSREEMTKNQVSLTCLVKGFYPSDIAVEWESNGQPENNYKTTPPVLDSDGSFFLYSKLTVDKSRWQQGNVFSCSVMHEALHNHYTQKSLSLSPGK
T4 sequence (Q9Y336 other isoform, or with tags, fused parts or gaps mutant): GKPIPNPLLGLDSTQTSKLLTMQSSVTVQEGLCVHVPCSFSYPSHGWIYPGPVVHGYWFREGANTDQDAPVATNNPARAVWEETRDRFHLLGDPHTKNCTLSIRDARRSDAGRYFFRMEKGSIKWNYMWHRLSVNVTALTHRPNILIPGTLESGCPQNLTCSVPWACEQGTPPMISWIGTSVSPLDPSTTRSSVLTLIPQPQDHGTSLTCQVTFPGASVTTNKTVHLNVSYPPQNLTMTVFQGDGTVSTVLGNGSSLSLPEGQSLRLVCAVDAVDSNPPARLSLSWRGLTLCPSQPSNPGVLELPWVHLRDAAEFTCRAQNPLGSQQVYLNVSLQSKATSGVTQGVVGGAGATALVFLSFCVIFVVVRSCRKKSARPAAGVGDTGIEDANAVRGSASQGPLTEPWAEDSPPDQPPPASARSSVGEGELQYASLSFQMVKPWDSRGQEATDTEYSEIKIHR
T6 sequence (Q9Y336 other isoform, or with tags, fused parts or gaps mutant): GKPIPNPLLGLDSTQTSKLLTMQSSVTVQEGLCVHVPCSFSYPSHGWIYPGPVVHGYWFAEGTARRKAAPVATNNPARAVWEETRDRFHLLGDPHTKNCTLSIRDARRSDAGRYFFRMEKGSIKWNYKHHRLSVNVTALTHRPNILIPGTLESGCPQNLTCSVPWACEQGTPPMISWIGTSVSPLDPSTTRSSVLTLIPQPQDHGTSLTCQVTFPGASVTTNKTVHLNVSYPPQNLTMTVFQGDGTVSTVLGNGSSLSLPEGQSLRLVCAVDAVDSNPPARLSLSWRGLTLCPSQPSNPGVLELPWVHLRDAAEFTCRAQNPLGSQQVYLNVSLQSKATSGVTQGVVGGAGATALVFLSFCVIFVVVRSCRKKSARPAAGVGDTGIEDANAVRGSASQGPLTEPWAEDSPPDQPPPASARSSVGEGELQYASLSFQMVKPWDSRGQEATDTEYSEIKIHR
T5 sequence (Q9Y336 other isoform, or with tags, fused parts or gaps mutant): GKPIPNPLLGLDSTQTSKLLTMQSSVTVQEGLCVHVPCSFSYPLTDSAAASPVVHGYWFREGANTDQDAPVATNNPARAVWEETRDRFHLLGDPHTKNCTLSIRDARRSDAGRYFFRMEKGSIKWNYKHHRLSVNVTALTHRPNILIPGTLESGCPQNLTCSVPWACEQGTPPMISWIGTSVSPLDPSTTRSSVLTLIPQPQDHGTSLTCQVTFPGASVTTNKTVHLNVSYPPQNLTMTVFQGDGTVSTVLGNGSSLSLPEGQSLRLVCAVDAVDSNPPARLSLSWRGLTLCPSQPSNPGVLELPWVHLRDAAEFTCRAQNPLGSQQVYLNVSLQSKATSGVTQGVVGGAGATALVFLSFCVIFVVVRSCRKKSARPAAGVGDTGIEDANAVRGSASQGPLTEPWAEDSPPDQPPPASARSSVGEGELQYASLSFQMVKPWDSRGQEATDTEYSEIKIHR

B1: mAbF (antibody, human IgG1, V domains shown)
VH: QVQLQQSGPEVVRPGVSVKISCKGSGYTFTDYSMHWVKQSHAKSLEWIGVISTYNGNTNYNQKFKGKATMTVDKSSSTAYMELARLTSEDSAIYYCARRGYYGSSSWFGYWGQGTLVTVSA
VL: DIVMTQSQKFMSTSVGDRVSVTCKASQNVGTDVAWYQQKPGQSPEALIYSASYRYSGVPDRFTGSGSGADFTLTISNVQSEDLAEYFCQQYNSFPYTFGGGTKLEIK
For the molecule B1, the EC50 (commonly the concentration needed to bring the measured effect to its halfway point) in assay [1] was determined as 0.3 µg/mL.

B2: mAb6 (antibody, human IgG1, V domains shown)
VH: EIQLQQSGPELEKPGASVKISCKASGYSFSDYNMNWVKQSNGKSLEWIGNIDPYYGATSYNQRFKGKATLTVDKSSSTAYMQLKSLTSEDSAVYYCARGDSLFAYWGQGTLVTVSA
VL: DIVMTQSQEFMSTSLGDRVSVTCKASQNVGTNVAWYQQKPGQSPKALLYSASSRYSGVPDRFTGSGSGTDFTLTINNMQSEDLAEYFCQQYITYPYTFGGGTKLEIK
For B2, the binding result in assay [2] was “binds”.

B3: mAb1 (antibody, human IgG1, V domains shown)
VH: DVQLQESGPGLVKPSQSLSLTCTVTGYSITGGFAWNWIRQFPGNTLEWMGYIGYGGSTSYNPSLNSRISITRDTSKNHFFLQFNSVTTDDSATYYCARGDYLFAYWGQGTLVTVSA
VL: DIVMTQSHKFMSTSVGDRVSITCKASQDVNTAVAWYQQKPGQSPKLLIYSASYRYTGVPDRFTGSGSGTDFTFTISSVQAEDLAVYYCQQHYSTPRTFGGGTKLEIK
Regarding B3, the results for the “IC50 (read off the curve)” value in assay [3], in assay [4] and in assay [5] were roughly 2 µg/mL, roughly 4 µg/mL and roughly 1 µg/mL, respectively.

B4: mAb2 (antibody, human IgG1, V domains shown)
VH: EVQLQESGPGLVKPSQSLSLTCTVTGYSITGGFAWNWIRQFPGNTLEWMGYIGYGGSTSYNPSLNSRISITRDTSKNHFFLQFNSVTTEDSATYYCARGDYLFAYWGQGTLVTVSA
VL: DIVMTQSHKFMSTSVGDRVSITCKASQDVNTAVAWYQQKPGQSPKLLIYSASYRYTGVPDRFTGSGSGTDFTFTISSVQAEDLAVYYCQQHYSTPRTFGGGTKLEIK
As for B4, the “IC50 (read off the curve)” value in assay [3] was roughly 2 µg/mL; in [4], roughly 4 µg/mL; in assay [5], roughly 1 µg/mL.

B5: mAbA (antibody, human IgG1, V domains shown)
VH: QVQLQQPGAELVKPGSPVKLSCKASYFTFTSYWMHWVRQRPGQGLEWIGEINPSNGHTNYNEKFESKATLTVDRSSSTAYMQLSSLTSEDSAVFYCANGVESYDFDDALDYWGQGTSVTVSS
VL: DIQMTQTTSSLSASLGDRVTISCRASQDINNYLNWYQQKPDGTIKLLIYYTSRLHSGVPSRFSGSGSGTDYSLTINNLEQEDIATYFCQQGNTLPFTFGGGTKLEIK
As to B5, the values for the EC50 in assay [1] and in assay [6] were 0.08 µg/mL and 0.03 µg/mL, respectively. Further, the binding result in [7] is reported as “no binding”.

B6: mAbB (antibody, human IgG1, V domains shown)
VH: QVQLQQPGAELVKPGASVKLSCKASVYTFTSYWMHWVKQRPGQGLEWIGEINPSNGHTNYNEKFKTKAKLTVDKSSSTAYMQLSSLTSEDSAVYFCANGVETYDFDDAMDYWGQGTSVTVSS
VL: DIQMTQTTSSLSASLGDRVTISCRASQDINNYLNWYQQKPDGTVKLLIYFTSRLHSGVPSRFSGSGSGTDYSLTISNLEQEDIATYFCQQGDTFPFTFGGGTKLEIK
In turn, B6 had an EC50 in assay [1] of 0.1 µg/mL. The binding result in [7] is “no binding”.

B7: mAbD (antibody, human IgG1, V domains shown)
VH: QIQLVQSGPELKKPGETVKISCKASGYTFTDYSMHWVKQAPGKGLKWMGWIITETGEPTYADDFRGRFAFSLETSANTAYLQINNLKNEDTATYFCARDFDGYWGQGTTLTVSS
VL: DILMTQSPASLSASVGETVTITCRASENIYSYLAWYQQKRGKSPQFLVYNAKTLTEGVPSRFRGSGSGTQFSLKINSLQPEDFGTYYCQHHYGFPWTFGGGTKLEIK
The molecule B7 returned an EC50 in assay [6] of 0.036 µg/mL. The binding result in assay [8] is recorded as “no binding”.

B8: mAbE (antibody, human IgG1, V domains shown)
VH: DVQLVESGGGLVQPGGSRKLSCAASGFTFSTFGMHWVRQAPEKGLEWVAYISSGSNAIYYADTVKGRFTISRDNPKNTLFLQMTSLRSEDTAMYYCASPGYGAWFAYWGQGTLVTVSA
VL: ENVLTQSPAIMSASPGEKVTMTCRASSSVSSAYLHWYQQKSGASPKLWIYSTSNLASGVPARFSGSGSGTSYSLTISSVEAEDAATYYCQQYSAYPYTFGGGTKLEIK
B8 returned an EC50 in assay [1] of 0.01 µg/mL.

B9: mAbC (antibody, human IgG1, V domains shown)
VH: QIQLVQSGPELKKPGETVKISCKASGYTFTNYEMNWVKEAPGKGLKWMGWINTYTGESTYADDFKGRFAFSLETSASTVYLQINNLKDEDVATYFCVRDDYGRSYGFAYWGQGTLVTVSA
VL: NIVLTQSPASLTVSLGQRANISCRASESVDSYGNSFMHWYQQKPGQPPKLLIYLASKLESGVPARFSGSGSRTDFTLTIDPVETDDAATYYCHQNNEDPPWTFGGGTKLEIK
As to B9, in [1], a half-maximal response (EC50) required 0.09 µg/mL. In addition, the binding result in assay [9] is listed as “no binding”.

(Values after patent US20200369765A1 (INNATE PHARMA, published 2020).)
